The record followed here is paper PMC7617694 (Molecular cell, 2025).

For orientation: stoichiometry N means a count of units in the complex or per binding partner.

Positions count from the first letter of the chain named.

What all share (test): cryo-EM structure
Experiment [1] deals with Recombinant human CXCL5 (human).
The target in a further experiment is T1, Recombinant human CXCL1 (human, UniProt P09341 35-107).
T1 sequence: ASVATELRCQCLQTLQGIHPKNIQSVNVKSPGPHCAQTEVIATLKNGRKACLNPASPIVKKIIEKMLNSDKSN

Another experiment deals with T2, Recombinant human CXCL3 (human, UniProt P19876 35-107).
T2 sequence: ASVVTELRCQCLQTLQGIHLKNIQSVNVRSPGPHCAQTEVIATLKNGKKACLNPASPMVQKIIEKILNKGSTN

Another experiment addresses T3, Recombinant human CXCL2 (human, UniProt P19875 35-107).
T3 sequence: T1 sequence with S2P, V3L, P20L, N27K, R48Q, I58M, N68K, S69N, D70G

As to Recombinant human CXCL5 (ligand), the stoichiometry N in experiment [1] turned out to be 2.

B1: C-X-C chemokine receptor 2 (CXCR2), FLAG-tagged, purified from Sf9 cells (receptor)
chain: ANFTPVNGSSGNQSVRLVTSSSMEDFNMESDSFEDFWKGEDLSNYSYSSTLPPFLLDAAPCEPESLEINKYFVVIIYALVFLLSLLGNSLVMLVILYSRVGRSVTDVYLLNLALADLLFALTLPIWAASKVNGWIFGTFLCKVVSLLKEVNFYSGILLLACISVDRYLAIVHATRTLTQKRYLVKFICLSIWGLSLLLALPVLLFRRTVYSSNVSPACYEDMGNNTANWRMLLRILPQSFGFIVPLLIMLFCYGFTLRTLFKAHMGQKHRAMRVIFAVVLIFLLCWLPYNLVLLADTLMRTQVIQETCERRNHIDRALDATEILGILHSCLNPLIYAFIGQKFRHGLLKILAIHGLISKDSLPKDSRPSFVGSSSGHTSTTL
For the molecule B1, the binding result in the experiment with Recombinant human CXCL1, with Recombinant human CXCL3 and with Recombinant human CXCL2 was “binds” in each case.
